The values that follow come from patent US20230383007A1 (BIOSION, published 2023).

For assay [1], the target named is T1, cynomolgus TROP2-his protein (cynomolgus, UniProt P09758 27-272 (human entry), limits assumed).
T1 construct: also called Cyno TROP2-his; Cynomolgus monkey TROP2-his protein
T1 chain: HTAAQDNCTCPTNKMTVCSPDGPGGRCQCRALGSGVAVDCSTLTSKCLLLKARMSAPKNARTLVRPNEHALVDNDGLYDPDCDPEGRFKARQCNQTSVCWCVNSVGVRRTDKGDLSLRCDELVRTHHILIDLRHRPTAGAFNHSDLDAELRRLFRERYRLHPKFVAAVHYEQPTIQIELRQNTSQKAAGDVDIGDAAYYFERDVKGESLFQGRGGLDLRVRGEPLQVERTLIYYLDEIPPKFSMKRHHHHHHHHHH
Kind of assay: indirect ELISA, plate coated with 1 ug/ml TROP2-his; bacterial culture supernatant. As to the method: (§1) ELISA plates were coated with 100 μl 1 μg/ml human TROP2-his protein (in house made with SEQ ID NO: 16), or 1 μg/ml cynomolgus TROP2-his protein (in house made with SEQ ID NO: 19) in carbonate/bicarbonate buffer (pH 9.6) overnight at 4° C., washed once with wash buffer (PBS+0.05% v/v Tween-20, PBST) and then blocked with 200 μl/well blocking buffer (5% w/v non-fatty milk in PBST) for 2 hours at 37° C. Plates were washed 4 times, and respectively incubated with 100 μl bacterial culture supernatant, and sacituzumab (used as the benchmark, also referred to as BM or BM1 hereinafter, in house made with heavy chain and light chain amino acid sequences set forth in SEQ ID NOs: 17 and 18) in 5% w/v non-fatty milk in PBST at 200 ng/ml, for 40 minutes at 37° C. The plates were washed 4 times, and incubated with THE™ HA Tag Antibody [HRP], mAb, Mouse Antibody (1:5000 dilution in PBST, GenScript, Cat #A01296, 100 μl/well, for plates with bacterial culture supernatans of the disclosure) or Peroxidase AffiniPure F(ab′)₂ Fragment Goat Anti-Human IgG, Fey fragment specific (Jackson Immunoresearch, Cat #109-036-098, for plates with the benchmark), for 40 minutes at 37° C. After a final wash, plates were incubated with 100 μl/well ELISA substrate TMB (Innoreagents, Cat #TMB-S-002) at room temperature. The reaction was stopped in 3-10 minutes with 50 μl/well 1M H₂SO₄, and the absorbance of each well was read on a microplate reader using dual wavelength mode with 450 nm for TMB and 630 nm as the reference wavelength. When the OD of a sample well was 2 times higher than the OD of the blank well, the sample can be determined as positive.
A general note: In an ELISA, binding on a coated surface is turned into a signal by an enzyme label.

For assay [2], the target named is T2, human TROP2-his protein (human, UniProt P09758 27-274).
T2 construct: also called biotin labeled human TROP2-his protein
T2 sequence: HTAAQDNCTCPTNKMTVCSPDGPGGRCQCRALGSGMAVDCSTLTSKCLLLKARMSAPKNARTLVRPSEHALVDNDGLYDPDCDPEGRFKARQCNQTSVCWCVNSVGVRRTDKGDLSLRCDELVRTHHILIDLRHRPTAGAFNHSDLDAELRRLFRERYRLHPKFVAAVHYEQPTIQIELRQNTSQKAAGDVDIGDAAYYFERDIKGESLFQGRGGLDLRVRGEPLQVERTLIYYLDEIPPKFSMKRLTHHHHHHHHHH
Described as above. The method, then: as §1

Assay [3] has as its target T2, human TROP2-his protein. Kind of assay: competitive ELISA: antibody pre-mixed with biotin labeled human TROP2-his, added to plate coated with the benchmark (sacituzumab analog); unit taken from the x axis (nM).
Assay [4] has as its target T2, human TROP2-his protein. Description: competitive ELISA: soluble benchmark pre-mixed with biotin labeled human TROP2-his, added to plate coated with the benchmark (self-competition); unit taken from the x axis (ng/mL). The method, then: The anti-TROP2 antibodies were tested for their epitope binding in a competitive ELISA assay. Briefly, 100 μl of the benchmark at 1 μg/mL in PBS was coated on 96-well micro plates for 2 hours at 37° C. ELISA plates were washed once with wash buffer (PBS+0.05% v/v Tween-20, PBST) and then blocked with 200 μl blocking buffer (5% w/v non-fatty milk in PBST) for 2 hours at 37° C. While blocking, the anti-TROP2 antibodies of the disclosure or controls were diluted with biotin labeled human TROP2-his protein (SEQ ID NO: 16, 34 ng/mL in 2.5% w/v non-fatty milk in PBST), starting at 80 nM with a 5-fold serial dilution, and incubated at room temperature for 40 minutes. After plate washing 4 times, the antibody/TROP2-his protein mixtures were added to benchmark coated plates, 100 μl per well. After incubation at 37° C. for 40 minutes, plates were washed 4 times again using wash buffer. Then the plates were added and incubated with 100 μl Peroxidase Streptavidin (1:10000 dilution in PBST buffer, Jackson Immunoresearch, Cat #016-030-084) for 40 minutes at 37° C. Plates were washed again using wash buffer. […] The absorbance of each well was read on a microplate reader using dual wavelength mode with 450 nm for TMB and 630 nm as the reference wavelength, and the OD (450-630) values were plotted against antibody concentration. Data was analyzed using Graphpad Prism software and IC₅₀ values were reported.

B1: single domain antibody 01-9F (VHH)
VHH: QVQLVESGGGSVQAGGSLRLSCVVSGLPYERYCVAWFRQGPGKEREGVARILSDGTTSYSDSVKGRFTISKDNAKNTLYLQMNSLKSEDTATYYCAAEAFRPFTPSDGDCTTVLGIDYWGKGTPVTVSS
Usually IC50 stands for the concentration needed to halve the response being measured. The low end stands for greater potency, the high end for weaker potency. B1: the “Indirect ELISA OD (450-630)” value was 0.59 OD (450-630) in assay [1] and 0.97 OD (450-630) in the assay with human TROP2-his protein [2]. Moreover, the IC50 with human TROP2-his protein [3] amounted to 0.247 nM.

B2: sacituzumab (benchmark, an analog of sacituzumab, in house made) (antibody, human IgG1, kappa, V domains shown)
VH: SVQLQQSGSELKKPGASVKVSCKASGYTFTNYGMNWVKQAPGQGLKWMGWINTYTGEPTYTDDFKGRFAFSLDTSVSTAYLQISSLKADDTAVYFCARGGFGSSYWYFDVWGQGSLVTVSS
VL: DIQLTQSPSSLSASVGDRVSITCKASQDVSIAVAWYQQKPGKAPKLLIYSASYRYTGVPDRFSGSGSGTDFTLTISSLQPEDFAVYYCQQHYITPLTFGAGTKVEIKR
notes: also called BM; BM1
As to B2, the IC50 with human TROP2-his protein [4] worked out at 0.0543 µg/mL.
